According to PMC4960888, “Gd-nanoparticles functionalization with specific peptides for ß-amyloid plaques targeting” (Journal of Nanobiotechnology, 2016):
Entries after “also recorded” stand apart in the source; their conditions may differ. Each block holds one compound with its values, some of them ahead of it.

Experiments:
[1] = Dynamic light scattering, hydrodynamic diameter; assay type: physicochemical; settings: DLS, Zetasizer NanoS, 532 nm, 10 mM Gd^3+, 0.2 µm filtered; measurement repeated 8 times
Description: Hydrodynamic diameters (DH) of the Nps were determined with a Zetasizer NanoS (laser He–Ne 532 nm) from Malvern Instrument® (5 mW, with 173° NIBS detector and narrow band filter). Attenuator was optimized by the device and position was set to the center of the cell. To perform the measurement, 1 mL of nanoparticles suspensions at 10 mM Gd^3+ was poured in a 12 mm square polystyrene disposable cuvette after filtration on a 0.2 µm cut-off nylon filter. Each measurement was repeated 8 times.

[2] = Relaxivity measurements (60 MHz, 37 °C); assay type: physicochemical; settings: 60 MHz (1.4 T), Bruker minispec mq60, Gd^3+ concentration by ICP-OES
Description: Relaxivity measurements were performed on a Bruker® minispec mq60NMR analyzer (Brucker, USA) at 37 °C at 1.4 T (60 MHz). Samples were measured at a specific Gd^3+ concentration (mM), calculated from ICP-OES. The longitudinal relaxation time T1 and the transverse relaxation time T2 (s) were measured at 60 MHz and at 37 °C. Then the relaxivities ri (s^−1 mM^−1) were obtained according to the following formula: 1/Timeasured=1/Tiwater+riGd^3+ where i = 1 or 2.

amyloid fibrils = settings: cited from earlier work
Description: Currently, magnetic resonance imaging (MRI) is the preferred neuroimaging examination for AD as it allows an accurate measurement of brain structures’ volume, although a decrease of this latter appears to be a nonspecific and late feature of cerebral vascular diseases’ progression. Thus, studies are under way to develop specific imaging markers for different types of dementia, including markers of senile plaques for very-high-field MRI and positron emission tomography (PET). A better characterization of the amyloid plaque presence and load in the brain can be also expected from i ...

[3] = tested on: Aβ amyloid plaques (APPswe/PS1A246E/TTR(−/−) transgenic mouse brain sections); assay: Immunohistochemistry on AD mouse brain sections with amyloid plaques; settings: 10 months old APPswe/PS1A246E/TTR(−/−) hippocampus, nanoparticles at 3 nM Cy5.5 (2 mM Gd^3+) with 3 mM ungrafted nanoparticles, or PIB 1 µM, 1h30 RT, fluorescence
V30M-TTR fibrils = assay: SPR binding to V30M-TTR fibrils; design: species or system human; settings: 800 R.U. V30M-TTR fibrils, 0.02–6.4 mM in peptide, R.U. 141 s after end of injection
Description: N-(3-Dimethylaminopropyl)-N′-ethylcarbodiimide hydrochloride (EDC, >98.0 %), N-hydroxysuccinimide (NHS, >97.0 %), gadolinium chloride hexahydrate ([GdCl3·6H2O], 99 %), sodium hydroxide (NaOH, 99.99 %), hydrochloric acid (HCl, 36.5–38 %), sodium chloride (NaCl, >99.5 %), dimethyl sulfoxide (DMSO, >99.5 %), acetonitrile (CH3CN, >99.9 %), trifluoroacetic acid (TFA, >99 %), trinitrobenzene sulfonic acid (TNBS) 1 M in water, sodium dodecyl sulfate (SDS, >99 %), (3-aminopropyl)triethoxysilane (APTES, >98 %), tetraethyl orthosilicate (TEOS; >98 %) and Poly(ethylene glycol) bis(carboxymethyl) ether (PEG) with an average molecular weight Mn = 250 g mol^−1 were purchased from Aldrich Chemical (France) and used without further purification. Diethylene glycol (DEG, 99 %) was purchased from SDS Carlo Erba (France). Acetone (reagent grade) was purchased from Sodipro (France) and was used as received. […] Recombinant human V30M-TTR protein was obtained following cloning its gene in the plasmid pQE81L and its expression in Escherichia coli (M15). Briefly, bacterial cultures were performed in LB medium, 100 µg mL^−1 ampicillin and 25 µg mL^−1 kanamycin, at 37 °C, under constant orbital shaking. Protein production was pursued for 7 h after IPTG induction when the absorbance was 0.700 at 600 nm. The bacterial pellet of 50 mL of culture was resuspended in sodium phosphate 50 mM, pH 8, sodium chloride 300 mM, imidazole 10 mM, betamercaptoethanol 10 mM, supplemented with 500 µL of a protease inhibitor, phenylmethylsulfonyl fluoride (Sigma, #78830), at 1 mM final and a cocktail of protease inhibitor EDTA-free (Roche, #11873580001). The suspension was sonicated during a total time of 6 min with repeated cycles of 5/7 s off with an amplitude of 20 %, then centrifuged during 30 min at 100,000g, to pellet cellular debris. The supernatant was filtered on 0.2 µm cut off filters. The purification of the protein was performed on immobilized metal ion chromatography (Chelating Fast Flow, Amersham #17057501), and dialyzed against 20 mM·NH4HCO3 (membrane cutoff 1/10,000; 3500 MWCO Spectrapore). Finally, the protein was freeze-dried. The protein quality was checked by SDS PAGE gel 15 %. The Pittsburgh compound-B (PIB) derivative molecule was synthetized according to the procedure already described in the literature. Starting from the p-anisidine, the p-nitrobenzoyl amide was readily obtained and then the corresponding thioamide was prepared by reaction with Lawesson’s reagent. Finally, an oxidative cyclization was done to lead to the benzothiazole derivative, and the nitro function was reduced to give compound (Synthesis’ details in Additional file 1). […]

SH-SY5Y = assay: MTT cell viability
[4] = tested on: Aβ amyloid plaques (APPswe/PS1A246E/TTR(−/−) transgenic mouse brain sections); settings: cited from earlier work
Description: The specificity of functionalized nanoparticles binding was verified, by incubating nanoparticles without grafted-peptides, AGuIX@PEG@Cy5.5, on brain section containing amyloid burden. […] Whereas, various other cyanine derivative d ...

fibrils = assay: Cy5.5 staining of fibrils in vitro (personal data); assay type: binding; settings: in vitro on fibrils (personal data)
Aβ(1–42) fibrils [5] = molecular target: T1, Aβ(1–42) fibrils (Homo sapiens, UniProt P05067); assay: Partition (spectrofluorometric) binding to Aβ(1–42) fibrils; settings: 20 µM fibrils, 2 µM nanoparticles, saturated with 3 mM AGuIX, 60 min; data not shown
T1 construct: Freeze-dried Aβ(1–42) peptide (Genecust) was dissolved in distilled water at pH 11.0; purchased Genecust (Luxembourg)

Aβ(1–42) fibrils [6] = molecular target: T1, Aβ(1–42) fibrils; assay: SPR binding to Aβ(1–42) fibrils
Description: The surface plasmon resonance assays were performed using a BIAcore® 2000 biosensor. The instrument was equipped with a CM3 sensor chip (GE Healthcare®, Uppsala, Sweden). The interaction studies took place on a gold chip functionalized with carboxymethylated dextran. The sensor surface itself form one wall of a flow cell, which is an integral part of the microfluidic system. All SPR experiments were performed at 25 °C. HEPES buffer (HBS-P, GE Healthcare®, 0.01 M HEPES, 0.15 M NaCl, 0.005 % surfactant p20) was used as running buffer.
For immobilization, amine coupling reagents were obtained from the GE Healthcare® kit containing 0.2 M EDC in water, 0.05 M NHS in water and ethanolamine-HCl pH 8.5. […] Aβ(1–42) and V30M-TTR fibrils were immobilized on the flow cell 2 and 4 respectively of a CM3 sensor chip with an amine coupling reaction. After the chip activation by EDC/NHS during 7 min, the fibrils were injected at: 10 µM in 10 mM sodium acetate pH 4 at a flow rate of 5 µL min^−1 during 20 min for Aβ(1–42) fibrils or at 0.36 µM in 10 mM sodium acetate pH 5.5 at a flow rate of 5 µL min^−1 during 100 min for V30M-TTR fibrils. […]
Biacore® experiments gathered data from 3 cycles for each studied analyte. […] Results of the interaction between the analytes and the Aβ(1–42) or V30M-TTR fibrils were represented on a sensorgram expressed as respectively FC2-1 or FC4-3 (RU-RUdextran) versus time. […]

T1 sequence (P05067 672-713): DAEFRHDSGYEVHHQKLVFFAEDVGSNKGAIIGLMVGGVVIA

Compound: KLVFF [AGuIX@PEG@KLVFF]
hydrodynamic diameter [1]: 3.5 ± 0.9 nm
r1 (longitudinal relaxivity) [2]: 14.1 s⁻¹ mM⁻¹

r1 (longitudinal relaxivity) [2]: 3.4 s⁻¹ mM⁻¹
Compound: CNC[C@H](O)[C@@H](O)[C@H](O)[C@H](O)CO.O=C([O-])CN1CCN(CC(=O)[O-])CCN(CC(=O)O)CCN(CC(=O)[O-])CC1.[Gd+3] [DOTAREM®, reference compound]

Compound: CNc1ccc(-c2nc3ccc(O)cc3s2)cc1 [Pittsburgh compound B, [^11C]2-(4′-methylaminophenyl)-6-hydroxybenzothiazole]
binding to amyloid fibrils (amyloid fibrils): binds with high affinity to any amyloid fibrils

Compound: KLVFF [AGuIX@PEG@KLVFF@Cy5.5]
binding/staining of amyloid plaques in AD mouse brain sections [3]: beta-amyloid plaques were visualized; also recorded: bind selectively amyloid plaque constituted by Aβ protein
binding/staining of amyloid plaques in AD mouse brain sections ([3]; listed as KLVFF-grafted): recognized and bound the Aβ amyloid plaque localized in the mouse hippocampus
interaction with V30M-TTR fibrils (V30M-TTR fibrils): no specific interaction
interaction with V30M-TTR fibrils (V30M-TTR fibrils; listed as KLVFF-grafted): did not interact with V30M-TTR fibrils

Compound: LPFFD [AGuIX@PEG@LPFFD, LPFFD grafted to AGuIX@PEG by amide formation, 1.6 ± 0.2 peptide per particle]
hydrodynamic diameter [1]: 3.2 ± 0.8 nm
cells alive (Fig. S7) (SH-SY5Y; 1 h at 37 °C, 5 % CO2, up to 2 mM nanoparticles, MTT 2 h, 540 nm, triplicate): more than 80%
r1 (longitudinal relaxivity) [2]: 13.2 s⁻¹ mM⁻¹

Compound: Cy5.5 [reference compound]
binding/staining of amyloid plaques in AD mouse brain sections [3]: non-binding of Cy5.5 dye to amyloid plaque; also recorded: background due to the Cy5.5 restricted to blood vessels
staining by Cy5.5 on brain section of AD mouse model [4]: does not stain fibrils
staining of fibrils by Cy5.5 molecule (fibrils): does not stain fibrils

Compound: LPFFD [AGuIX@PEG@LPFFD@Cy5.5]
binding/staining of amyloid plaques in AD mouse brain sections [3]: beta-amyloid plaques were visualized; also recorded: bind selectively amyloid plaque constituted by Aβ protein
binding/staining of amyloid plaques in AD mouse brain sections ([3]; listed as LPFFD-grafted): recognized and bound the Aβ amyloid plaque localized in the mouse hippocampus
interaction with V30M-TTR fibrils (V30M-TTR fibrils): no specific interaction
interaction with V30M-TTR fibrils (V30M-TTR fibrils; listed as LPFFD-grafted): did not interact with V30M-TTR fibrils
Cy5.5 fluorescence associated with fibrils (Aβ(1–42) fibrils [5]): no fluorescence has been detected associated with fibrils
interaction (R.U. remaining 141 s after end of injection) (Aβ(1–42) fibrils [6]; 2.5 mM in Gd^3+): interact with Aβ(1–42) fibrils
interaction over nanoparticle concentration range (Aβ(1–42) fibrils [6]; 0.02–6.4 mM in peptide, R.U. 141 s after end of injection): displayed an interaction on Aβ(1–42) fibrils (blue curves) dependent on nanoparticle concentrations injected
cells alive (SH-SY5Y; 5 mM Gd^3+, MTT): more than 75%
cells alive (SH-SY5Y; 1 h incubation, 0.5 to 2 mM Gd^3+, MTT): more than 80%
toxic effects on cells (SH-SY5Y; MTT, up to 5 mM Gd^3+): do not exhibit any toxic effects on cells
